Test results published in patent US20250170247A1, “CONJUGATES, AND USES THEREOF” (CITY UNIVERSITY OF HONG KONG, priority 2023, published 2025).
{5Hexynyl} = hexynyl group used for click conjugation

What was measured:
RHAU53 = target: T1, RHAU53 (Homo sapiens, UniProt Q9H2U1); settings: It is known; cited from earlier work
T1 construct: RHAU-specific motif containing 53 amino acids (RHAU53)
T1 sequence (Q9H2U1 53-105 limits assumed): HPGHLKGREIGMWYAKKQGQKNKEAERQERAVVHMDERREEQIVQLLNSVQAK

[1] = target: T2, RHAU53 peptide (53-aa RHAU/DHX36 G4-binding fragment) (UniProt Q9H2U1 Q9H2U1:53-105); assay: EMSA; 25 mM Tris-HCl pH 7.5, 150 mM KCl, 1 mM MgCl2, 37 C; settings: label: 3'-FAM
T2 chain: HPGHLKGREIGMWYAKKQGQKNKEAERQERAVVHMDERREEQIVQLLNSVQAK
Protocol: All oligonucleotides were heated for 5 minutes at 75° C. and cooled down for 10 minutes on ice. Different concentrations of RHAU53 peptide (0-2 μM) and 5-carboxyfluorescein (FAM)-labeled oligonucleotides or G4-compound conjugate (30 nM) were mixed in the Tris-HCl buffer (25 mM Tris-HCl, pH 7.5, 150 mM KCl and 1 mM MgCl₂). The mixture was incubated at 37° C. for 30 minutes, and 5% glycerol was then added to each sample. Bound and unbound RNAs were separated on 10% native polyacrylamide gel in 0.5× Tris/Borate/EDTA (TBE) at 4° C., 150 V for 30 minutes. The gel was scanned by scanner at 500 V and quantified by software.
To evaluate the target recognition ability of the rG4-PROTACs, the binding assay of FAM_rG4_A to RHAU53 peptide was performed by EMSA. RHAU53 peptide, the truncated DHX36 fragment, is the most important core protein domain required for rG4-RHAU interaction.

[2] = target: T3, DHX36 (RHAU), full-length (UniProt Q9H2U1 Q9H2U1:1-1008); assay: MST; 25 mM Tris-HCl pH 7.5, 150 mM KCl, 1 mM MgCl2, 37 C; settings: label: 3'-FAM; G4
T3 sequence: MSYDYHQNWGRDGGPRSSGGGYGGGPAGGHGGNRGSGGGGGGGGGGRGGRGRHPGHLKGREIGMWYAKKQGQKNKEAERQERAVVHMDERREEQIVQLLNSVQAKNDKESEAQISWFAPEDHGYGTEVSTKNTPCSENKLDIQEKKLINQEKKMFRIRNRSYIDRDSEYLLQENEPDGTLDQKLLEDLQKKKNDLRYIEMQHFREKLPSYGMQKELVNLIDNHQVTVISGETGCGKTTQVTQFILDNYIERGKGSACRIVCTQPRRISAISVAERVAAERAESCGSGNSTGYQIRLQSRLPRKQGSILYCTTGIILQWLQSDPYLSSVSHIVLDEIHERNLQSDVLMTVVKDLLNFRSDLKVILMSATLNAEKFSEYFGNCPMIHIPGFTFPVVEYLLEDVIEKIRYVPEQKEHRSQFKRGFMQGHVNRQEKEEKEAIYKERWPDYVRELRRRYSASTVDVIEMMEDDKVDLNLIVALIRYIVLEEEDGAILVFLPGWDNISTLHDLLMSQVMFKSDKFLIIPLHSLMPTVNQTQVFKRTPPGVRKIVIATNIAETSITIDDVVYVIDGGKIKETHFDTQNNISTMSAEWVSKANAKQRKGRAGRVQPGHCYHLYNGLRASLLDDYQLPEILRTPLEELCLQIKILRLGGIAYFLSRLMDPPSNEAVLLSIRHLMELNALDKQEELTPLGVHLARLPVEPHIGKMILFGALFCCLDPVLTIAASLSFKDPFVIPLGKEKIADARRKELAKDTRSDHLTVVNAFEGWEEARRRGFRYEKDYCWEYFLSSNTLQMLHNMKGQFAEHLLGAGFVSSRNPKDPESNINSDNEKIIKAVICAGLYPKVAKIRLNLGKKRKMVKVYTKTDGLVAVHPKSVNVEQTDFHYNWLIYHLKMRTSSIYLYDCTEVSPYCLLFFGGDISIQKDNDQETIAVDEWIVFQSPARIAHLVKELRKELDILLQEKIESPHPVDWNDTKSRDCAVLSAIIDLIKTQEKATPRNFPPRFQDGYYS
Protocol: Before the reaction, FAM labeled G4-compound conjugate was heated at 75° C. for 5 minutes and cooled down on the ice for 10 minutes. DHX36 protein was serially diluted to 16 samples from the highest concentration of […]. FAM-labeled oligonucleotides (40 nM) were added to each sample and incubated in Tris-HCl buffer (25 mM Tris-HCl, pH 7.5, 150 mM KCl, and 1 mM MgCl₂) at 37° C. for 30 minutes. Binding affinity was carried out on capillary tubes using an MST machine. The curve fitting and Kd determination were obtained from software.
Full-length DHX36 protein was then used to further confirm the recognition of the present rG4-PROTAC to G4BP via MST binding assay. […] As described above, the affinity of A_dG4_FAM to RHAU53 was nearly 4.7 times higher (Kd=[…]) than that of FAM_rG4_A (FIG. 2B). The interaction between A_dG4_FAM and DHX36 protein quantified by MST (Kd=303±55; FIG. 2D) confirmed the result, indicating a relatively weaker interaction with DHX36.

[3] = target: T3, DHX36 (RHAU), full-length; assay: EMSA; strong binding, data not shown; settings: G4

hTERC rG4: human telomerase RNA component rG4, 5′-GGGUUGCGGAGGGUGGGCCU-3′ (SEQ ID NO: 1), the warhead targeting G4BP (RNA, 5' {5Hexynyl}, backbone not given here; further chemistry not fully specified)
affinity for RHAU53 (RHAU53): nanomolar affinity

GGGUUGCGGAGGGUGGGCCU (ssRNA, 5'-hexynyl clicked to azide-modified AHPC) [FAM_rG4_A (hTERC rG4 WT-AHPC conjugate)]
Kd [1]: 67.4 nM
Kd [2]: 79.7 nM

CGGGGCGGGUGGGGAGGGGU (ssRNA) [APP 3'UTR rG4]
binding result [3]: binds
